Patent publication US20260055186A1 (REPERTOIRE IMMUNE MEDICINES, published 2026)
Where two headings read alike, the source gives them in different places.

Columns and labels:
[1] = target: T1, human CD8 on human T cells (human, UniProt P01732 22-235); assay: flow cytometry on human CD8+ T cells, titration
T1 construct: whole, on cells; the antibodies were raised against human CD8 alpha; also called CD8 on human CD8+ T cells; hCD8
Procedure: (§1) The 16 above-referenced humanized 03A01-derived anti-CD8 antibodies were screened for their ability to bind human CD8 by evaluating binding to CD8⁺ T cells. The non-humanized parent (“03-Parent”) and the non-humanized parent comprising a heavy chain D64E liability mutation (“03-Parent-VH-D64E”) were used as controls. […] Cells were washed with 1×phosphate buffered saline (PBS) containing 1 mg/mL bovine serum albumin (PBS/BSA) and then stained with a 1:100 dilution of DyLight650-conjugated anti-human IgG H+L polyclonal antibody (ThermoFisher cat. no. Sa5-10129) in PBS/BSA. Following a 20-30 min incubation at 4° C., the cells were washed once with PBS/BSA, and then resuspended in PBS/BSA for analysis on a FACSCelesta using Diva software (BD Biosciences). The resulting data were analyzed using FlowJo. Data were quantified and reported as Max fluorescence intensity (MFI) of human IgG-Fc. […] Complete replacement of the LCDR1 (antibodies comprising VK4) eliminated binding to the CD8⁺ T cells.
(§2) The binding affinities of five of the above-referenced humanized anti-CD8 antibodies to human CD8 were determined by evaluating binding to CD8 human T cells using the method described above. Binding to human CD8+ T cells was tested at 7 serial 5-fold dilutions of each humanized 03A01 variant (from 50 nM to 3.2 pM). The resulting data were analyzed using FlowJo.

[2] = target: T1, human CD8 on human T cells; assay: flow cytometry on human CD8+ T cells, titration, apparent KD
Procedure: as §1, §2

[3] = target: T1, human CD8 on human T cells; assay: flow cytometry, human CD8+ T cells, antibody at 5 nM, anti-human IgG detection (MFI AF647)
Procedure: as §1

[4] = target: T1, human CD8 on human T cells; assay: flow cytometry on human CD8+ T cells, titration; remark: listed apart in the source
Procedure: (§3) The 24 humanized 02A01-derived anti-CD8 antibodies (excluding 02A01-VK3(D30E/N35Q)) were screened for their ability to bind human CD8 by evaluating binding to CD8+ T cells. The non-humanized parent (“02-Parent”) and the non-humanized parent comprising a heavy chain M39L liability mutation (“02-Parent-VH-M39L”) were used as controls. […] Cells were washed with 1×phosphate buffered saline (PBS) containing 1 mg/mL bovine serum albumin (PBS/BSA) and then stained with a 1:100 dilution of DyLight650-conjugated anti-human IgG H+L polyclonal antibody (ThermoFisher cat. no. Sa5-10129) in PBS/BSA. Following a 20-30 min incubation at 4° C., the cells were washed once with PBS/BSA, and then resuspended in PBS/BSA for analysis on a FACSCelesta using Diva software (BD Biosciences). The resulting data were analyzed using FlowJo. Data were quantified and reported as Max fluorescence intensity (MFI) of human IgG-Fc. […] Complete replacement of the HCDR1 (antibodies comprising VH5) eliminated binding to the CD8+ T cells.
(§4) Binding to human CD8+ T cells was tested at 7 serial 5-fold dilutions of each tested humanized 02A01 variant (from 50 nM to 3.2 pM). The resulting data were analyzed using FlowJo.

human CD8α/β [5] = target: T2, human CD8α/β (human, UniProt P01732 22-182; P10966 22-170); assay: SPR, antibody captured on Protein A chip, hCD8α/β as analyte, 1:1 fit
T2 construct: Soluble heterodimer used in SPR and in the Carterra binning (there printed only as CD8α/β); also called hCD8α/β
Procedure: (§5) The binding affinities of six of the humanized anti-CD8 antibodies to human CD8 were also determined by surface plasmon resonance (SPR). Briefly, equilibrium dissociation constants for human CD8α/β were determined using a real-time SPR biosensor using a Protein A Sensor Chip (Cytiva) to capture purified anti-CD8 monoclonal antibodies at a concentration of 0.5 nM. SPR binding studies were performed in a buffer composed of Phosphate buffered saline, pH 7.2 containing 0.05% v/v Surfactant P20 (PBS-P20 buffer). Different concentrations of hCD8α/β prepared in PBS-P20 running buffer (ranging from 500 nM to 7.8 nM, 2-fold dilutions) were injected over the anti-CD8 monoclonal antibody captured surface. Association of hCD8α/β to the captured monoclonal antibody was monitored for 400 seconds and the dissociation of hCD8α/β in PBS-P20 running buffer was monitored for 600 sec. All of the binding kinetics experiments were performed at 25° C. Kinetic association (kₐ) and dissociation (kd) rate constants were determined by fitting the real-time sensorgrams to a 1:1 binding model using Scrubber 2.0c curve fitting software.

human CD8α/β [6] = target: T2, human CD8α/β; assay: SPR, antibody captured on Protein A chip, hCD8α/β as analyte
Procedure: as §5

[7] = target: T1, human CD8 on human T cells; assay: flow cytometry on human CD8+ T cells, titration, apparent KD; remark: listed apart in the source
Procedure: as §3, §4

T2 sequence (P01732 22-182, chain 1 of 2): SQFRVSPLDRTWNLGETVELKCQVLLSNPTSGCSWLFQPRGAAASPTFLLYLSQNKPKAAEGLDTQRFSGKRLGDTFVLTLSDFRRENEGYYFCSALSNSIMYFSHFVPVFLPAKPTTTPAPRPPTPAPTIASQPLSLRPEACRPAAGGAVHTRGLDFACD
T2 sequence (P10966 22-170, chain 2 of 2): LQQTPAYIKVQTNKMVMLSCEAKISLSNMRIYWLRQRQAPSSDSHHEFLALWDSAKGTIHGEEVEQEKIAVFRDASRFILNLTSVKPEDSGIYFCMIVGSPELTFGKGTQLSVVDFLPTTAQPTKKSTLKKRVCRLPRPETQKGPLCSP
T1 sequence (P01732 22-235): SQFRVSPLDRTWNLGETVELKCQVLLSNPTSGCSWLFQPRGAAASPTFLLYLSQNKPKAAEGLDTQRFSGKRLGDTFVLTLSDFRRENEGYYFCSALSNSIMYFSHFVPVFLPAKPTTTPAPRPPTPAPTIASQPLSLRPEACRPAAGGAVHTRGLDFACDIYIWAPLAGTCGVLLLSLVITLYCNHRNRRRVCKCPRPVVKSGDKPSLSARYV

| Binder | Fold Change to Parental Apparent KD [1] [fold] | Kd [2] [nM] | binding result [3] | Fold Change to Parental Apparent KD [4] [fold] | Maximum CD8+ T cell Binding (MFI) [4] [MFI] | Kd (human CD8α/β [5]) [nM] | Fold Change to Parental Calculated KD (human CD8α/β [6]) [fold] | Kd [7] [nM] |
| --- | --- | --- | --- | --- | --- | --- | --- | --- |
| humanized 03A01-VH2-VK2 (antibody, human IgG1, V domains shown, human IgG1 format; also called 03-VH2/VK2) VH: EVQFQESGPGLVKPSQTLSLTCTVSGYSITSDFAWNWIRQPPGKGLEWMGYISYSGDTNYNPSLRSRITISRDTSKNQFSLKLSSVTAADTAVYYCTIRGYYTDSAFVFWGQGTLVTVSS VL: DIQMTQSPSTLSVSVGDRVTITCKASDHINNWLAWYQQKPGKAPKLLISGATSLETGVPSRFSGSGSGLEYTLTISSLQPDDFATYYCQQYWNSPFTFGQGTKLEIK | 2 | 1.84 |  |  |  |  |  |  |
| humanized 03A01-VH1-VK3 (antibody, human IgG1, V domains shown, human IgG1 format; also called 03-VH1/VK3) VH: EVQFQESGPGLVKPSQTLSLTCTVTGYSITSDFAWNWIRQPPGKELEWMGYISYSGDTNYNPSLRSRITISRDTSKNQFSLKLSSVTAADTATYYCTIRGYYTDSAFVFWGQGTLVTVSS VL: DIQMTQSPSTLSASVGDRVTITCKASDHINNWLAWYQQKPGKAPKLLISGATSLETGVPSRFSGSGSGLEYTLTISSLQPDDFATYYCQQYWNSPFTFGQGTKLEIK | 1.7 | 1.6 |  |  |  |  |  |  |
| humanized 02A01-VH4-VK2 (antibody, human IgG1, V domains shown, human IgG1 format; also called 02-VH4/VK2) VH: EVQLVQSGAEVKKPGATVKISCKASGYTFTDFTMHWVQQAPGKGLEWIGLVNPNNGGNIYAEKFQGRATLTVDTSTSTAYMELSSLRSEDTAVYYCGRVPLYTSHGMDYWGQGTLVTVSS VL: EIVLTQSPATLSVSPGERATISCRASESVDSYDINSMHWYQQKPGQAPRLLIYRASHLQSGIPARFSGSGSRTDFTLTISSVEPEDFATYYCQQSNEDPLTFGQGTKLEIK |  |  |  | 1.14 | 2680 | 19.5 | 2.1 | 0.065 |
| humanized 02A01-VH6-VK2 (antibody, human IgG1, V domains shown, human IgG1 format; also called 02-VH6/VK2) VH: EVQLVQSGAEVKKPGATVKISCKASGYTFTDFTMHWVQQAPGKGLEWIGLVNPNNGGNIYAEKFQGRVTLTVDTSTSTAYMELSSLRSEDTAVYYCGRVPLYTSHGMDYWGQGTLVTVSS VL: EIVLTQSPATLSVSPGERATISCRASESVDSYDINSMHWYQQKPGQAPRLLIYRASHLQSGIPARFSGSGSRTDFTLTISSVEPEDFATYYCQQSNEDPLTFGQGTKLEIK |  |  |  | 1.68 | 2770 | 16.6 | 1.79 | 0.096 |
| humanized 02A01-VH6-VK1 (antibody, human IgG1, V domains shown, human IgG1 format; also called 02-VH6/VK1) VH: EVQLVQSGAEVKKPGATVKISCKASGYTFTDFTMHWVQQAPGKGLEWIGLVNPNNGGNIYAEKFQGRVTLTVDTSTSTAYMELSSLRSEDTAVYYCGRVPLYTSHGMDYWGQGTLVTVSS VL: EIVLTQSPATLSVSPGERATISCRASESVDSYDINSMHWYQQKPGQPPRLLIYRASHLQSGIPARFSGSGSRTDFTLTISSVEPEDFATYYCQQSNEDPLTFGQGTKLEIK |  |  |  | 1.02 | 2620 | 15.9 | 1.71 | 0.058 |
| humanized 02A01-VH4-VK3 (antibody, human IgG1, V domains shown, human IgG1 format; also called 02-VH4/VK3) VH: EVQLVQSGAEVKKPGATVKISCKASGYTFTDFTMHWVQQAPGKGLEWIGLVNPNNGGNIYAEKFQGRATLTVDTSTSTAYMELSSLRSEDTAVYYCGRVPLYTSHGMDYWGQGTLVTVSS VL: EIVLTQSPATLSLSPGERATISCRASESVDSYDINSMHWYQQKPGQAPRLLIYRASHLQSGIPARFSGSGSRTDFTLTISSLEPEDFATYYCQQSNEDPLTFGQGTKLEIK |  |  |  | 1.56 | 2620 | 19.8 | 2.13 | 0.089 |
| humanized 02A01-VH6-VK3 (antibody, human IgG1, V domains shown, human IgG1 format; also called 02-VH6/VK3) VH: EVQLVQSGAEVKKPGATVKISCKASGYTFTDFTMHWVQQAPGKGLEWIGLVNPNNGGNIYAEKFQGRVTLTVDTSTSTAYMELSSLRSEDTAVYYCGRVPLYTSHGMDYWGQGTLVTVSS VL: EIVLTQSPATLSLSPGERATISCRASESVDSYDINSMHWYQQKPGQAPRLLIYRASHLQSGIPARFSGSGSRTDFTLTISSLEPEDFATYYCQQSNEDPLTFGQGTKLEIK |  |  |  | 1.51 | 2540 | 19.6 | 2.12 | 0.089 |
| humanized 02A01-VH3-VK3 (antibody, human IgG1, V domains shown, human IgG1 format; also called 02-VH3/VK3) VH: EVQLVQSGAEVKKPGATLKISCKASGYTFTDFTMHWVQQAPGKGLEWIGLVNPNNGGNIYAEKFQGRATLTVDTSTSTAYMELSSLRSEDTSVYYCGRVPLYTSHGMDYWGQGTLVTVSS VL: EIVLTQSPATLSLSPGERATISCRASESVDSYDINSMHWYQQKPGQAPRLLIYRASHLQSGIPARFSGSGSRTDFTLTISSLEPEDFATYYCQQSNEDPLTFGQGTKLEIK |  |  |  | 1.58 | 2540 | 22 | 2.37 | 0.09 |

The next lines start with the values.

| Fold Change to Parental Apparent KD [1] [fold] | Kd [2] [nM] | binding result [3] | Fold Change to Parental Apparent KD [4] [fold] | Maximum CD8+ T cell Binding (MFI) [4] [MFI] | Kd (human CD8α/β [5]) [nM] | Fold Change to Parental Calculated KD (human CD8α/β [6]) [fold] | Kd [7] [nM] | Binder |
| --- | --- | --- | --- | --- | --- | --- | --- | --- |
| 1.8 | 1.65 |  |  |  |  |  |  | humanized 03A01-VH3-VK1 (antibody, human IgG1, V domains shown, human IgG1 format; also called 03-VH3/VK1) VH: EVQFQESGPGLVKPSQTLSLTCTVSGYSITSDFAWNWIRQPPGKGLEWMGYISYSGDTNYNPSLKSRVTISRDTSKNQFSLKLSSVTAADTAVYYCTIRGYYTDSAFVFWGQGTLVTVSS VL: DIQMTQSSSTLSVSLGDRVTITCKASDHINNWLAWYQQKPGKAPRLLISGATSLETGVPSRFSGSGSGLEYTLTISSLQPDDFATYYCQQYWNSPFTFGQGTKLEIK |
| 2.1 | 1.98 |  |  |  |  |  |  | humanized 03A01-VH3-VK3 (antibody, human IgG1, V domains shown, human IgG1 format; also called 03-VH3/VK3) VH: EVQFQESGPGLVKPSQTLSLTCTVSGYSITSDFAWNWIRQPPGKGLEWMGYISYSGDTNYNPSLKSRVTISRDTSKNQFSLKLSSVTAADTAVYYCTIRGYYTDSAFVFWGQGTLVTVSS VL: DIQMTQSPSTLSASVGDRVTITCKASDHINNWLAWYQQKPGKAPKLLISGATSLETGVPSRFSGSGSGLEYTLTISSLQPDDFATYYCQQYWNSPFTFGQGTKLEIK |
|  |  | no binding (tested: 5 nM) |  |  |  |  |  | humanized 03A01-VH1-VK4 (antibody, human IgG1, V domains shown, human IgG1 format; VK4 has the LCDR1 of the top human germline hit) VH: EVQFQESGPGLVKPSQTLSLTCTVTGYSITSDFAWNWIRQPPGKELEWMGYISYSGDTNYNPSLRSRITISRDTSKNQFSLKLSSVTAADTATYYCTIRGYYTDSAFVFWGQGTLVTVSS VL: DIQMTQSPSTLSVSVGDRVTITCRASQSISSWLAWYQQKPGKAPKLLISGATSLETGVPSRFSGSGSGLEYTLTISSLQPDDFATYYCQQYWNSPFTFGQGTKLEIK |
| 2.1 | 1.91 |  |  |  |  |  |  | humanized 03A01-VH2-VK3 (antibody, human IgG1, V domains shown, human IgG1 format; also called 03-VH2/VK3) VH: EVQFQESGPGLVKPSQTLSLTCTVSGYSITSDFAWNWIRQPPGKGLEWMGYISYSGDTNYNPSLRSRITISRDTSKNQFSLKLSSVTAADTAVYYCTIRGYYTDSAFVFWGQGTLVTVSS VL: DIQMTQSPSTLSASVGDRVTITCKASDHINNWLAWYQQKPGKAPKLLISGATSLETGVPSRFSGSGSGLEYTLTISSLQPDDFATYYCQQYWNSPFTFGQGTKLEIK |
